Source: patent publication US20170267737A1 (published 2017)

Biological target: T1, glypican-3 (GPC3) peptide on HLA-A*02:01 (human)
T1 peptide: FIDKKVLKV
Assay: multimer staining

B1: TCR P1-1 (TCR, V domains shown)
Valpha: AQSVTQPDIHITVSEGASLELRCNYSYGATPYLFWYVQSPGQGLQLLLKYFSGDTLVQGIKGFEAEFKRSQSSFNLRKPSVHWSDAAEYFCAVGVLNFGNEKLTFGTGTRLTIIP
Vbeta: SQTIHQWPATLVQPVGSPLSLECTVEGTSNPNLYWYRQAAGRGLQLLFYSVGIGQISSEVPQNLSASRPQDRQFILSSKKLLLSDSGFYLCAWSEDTAYYGYTFGSGTRLTVV
B1: recognises.
